The target in assay [1] is DLC1 RhoGAP (Homo sapiens) (UniProt Q96QB1). The assay can be described thus: kinetics. The note with it: cited from earlier work.
Assay [2] shares this target. The assay can be described thus: ITC. The note with it: cited from earlier work.
In assay [3] the target is T1, DLC1 RhoGAP domain (residues 1074-1283), His6-tagged (human, UniProt Q96QB1 1074-1283).
T1 construct: RhoGAP domain of human DLC1A, residues 1074-1283 of UniProt Q96QB1 isoform 2; Vector pET28-MHL; also called DLC1A; His6-DLC1; source: E. coli BL21(DE3) or Rosetta(DE3), purified (Ni-NTA, SEC)
T1 sequence (looked up): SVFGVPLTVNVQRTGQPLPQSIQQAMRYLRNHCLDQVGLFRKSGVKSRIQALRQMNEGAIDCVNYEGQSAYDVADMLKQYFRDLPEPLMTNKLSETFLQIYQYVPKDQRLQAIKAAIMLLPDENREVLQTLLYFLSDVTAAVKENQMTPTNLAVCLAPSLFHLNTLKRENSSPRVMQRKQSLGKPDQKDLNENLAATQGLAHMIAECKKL
The assay can be described thus: crystal structure; copurified complex of DLC1 RhoGAP with p120RasGAP SH3 at 18 mg/ml; 0.2 M magnesium nitrate, 16.5% PEG 3350, hanging drops, ambient temperature (~22 °C); 3.2 Å, four copies of the complex in the asymmetric unit. The note with it: both partners purified.

Sequence of DLC1 RhoGAP (Homo sapiens) (Q96QB1 1075-1287): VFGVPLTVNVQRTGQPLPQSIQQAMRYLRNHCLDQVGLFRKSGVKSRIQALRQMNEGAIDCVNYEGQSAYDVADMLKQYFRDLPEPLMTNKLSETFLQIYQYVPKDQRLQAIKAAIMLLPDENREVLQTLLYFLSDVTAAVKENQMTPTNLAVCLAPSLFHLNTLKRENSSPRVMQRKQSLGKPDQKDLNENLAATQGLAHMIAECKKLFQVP

For p120RasGAP SH3 (from UniProt P20936), in assay [1], the Ki (as a rule, a measure of affinity in units of concentration, obtained from inhibition or displacement) was 600 nM. Also, the dissociation constant (Kd) (usually the constant that tells how readily two partners part at equilibrium) in assay [2] was 600 nM.

B1: p120RasGAP SH3 domain (residues 281-341) (domain or fragment, human, UniProt P20936 281-341, looked up)
chain: RRRVRAILPYTKVPDTDEISFLKGDMFIVHNELEDGWMWVTNLRTDEQGLIVEDLVEEVGR
notes: SH3 domain of human p120RasGAP, residues 281-341 of UniProt P20936; Vector pGEX-6p1; also called SH3 WT; RASA1; source: E. coli BL21(DE3) or Rosetta(DE3), purified (glutathione Sepharose, PreScission cleavage on beads, SEC)
For B1, the binding result in assay [3] is “binds”.

The record behind these values is publication PMC9378701, “SH3 domain regulation of RhoGAP activity: Crosstalk between p120RasGAP and DLC1 RhoGAP” (Nature Communications, 2022).
